# Data reported in patent US7202050B2, “Methods for measuring phosphatase activity” (priority 2002, dated 2007).
# Target: T1, V8 protease (Staphylococcus aureus, UniProt P0C1U8)
# T1 construct: purchased CalBiochem (San Diego, Calif.)
# Type: biochemical
# Details: 30 μM peptide pre-incubated with 40 units CKII 18 hrs at 30° C. in absence of ATP; 1 unit V8 protease, room temperature, in less than three hours; HPLC (FIG. 3)
# Procedure: The peptide (30 μM) was incubated at room temperature with V8 protease (0.1 units) in a buffer containing 20 mM Tris-HCl, 50 mM KCl, 10 mM MgCl2, pH 7.5 (CKII buffer) and aliquots were removed at various time points and flash-frozen in a dry-ice/methanol bath. Products of the protease digestion were then separated on the HPLC column using a 0% to 50% acetonitrile/water gradient in the presence of 0.1% TFA. Peptide was detected using both absorbance at 250 nm and by fluorescence of the rhodamine label using 530 nm excitation and 590 nm emission filters.
# Subsequently, 1 unit of V8 protease was added to each sample and the samples were incubated at room temperature. Aliquots were removed at various time points and flash-frozen in a dry-ice/methanol bath for HPLC analysis as described above.
# T1 sequence (P0C1U8 69-336): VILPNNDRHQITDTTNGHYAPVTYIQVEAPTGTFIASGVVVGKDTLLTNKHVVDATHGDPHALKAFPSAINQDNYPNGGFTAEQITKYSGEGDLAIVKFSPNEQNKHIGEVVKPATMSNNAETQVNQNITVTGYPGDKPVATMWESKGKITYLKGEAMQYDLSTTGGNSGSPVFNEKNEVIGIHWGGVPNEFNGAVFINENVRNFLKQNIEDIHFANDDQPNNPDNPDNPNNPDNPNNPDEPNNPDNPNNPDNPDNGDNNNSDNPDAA
substance,measurement,value
TMR-Asp-Glu-Ser-Glu-Glu-Glu-Asp-Lys(Nε-Flsn)-COOH (tetramethylrhodamine-DESEEEDK(fluorescein)-OH) [unphosphorylated peptide],peptide digested by V8 protease,80%
